Data from article PMC11066147 (Heliyon, 2024).
Entries after “also recorded” stand apart in the source; their conditions may differ.

Columns and labels:
[1] = molecular target: T1, PfHsp70-z (Plasmodium falciparum, UniProt Q8IC01); assay: SPR self-association, immobilised ligand PfHsp70-z; format: binding
T1 sequence (Q8IC01 1-873): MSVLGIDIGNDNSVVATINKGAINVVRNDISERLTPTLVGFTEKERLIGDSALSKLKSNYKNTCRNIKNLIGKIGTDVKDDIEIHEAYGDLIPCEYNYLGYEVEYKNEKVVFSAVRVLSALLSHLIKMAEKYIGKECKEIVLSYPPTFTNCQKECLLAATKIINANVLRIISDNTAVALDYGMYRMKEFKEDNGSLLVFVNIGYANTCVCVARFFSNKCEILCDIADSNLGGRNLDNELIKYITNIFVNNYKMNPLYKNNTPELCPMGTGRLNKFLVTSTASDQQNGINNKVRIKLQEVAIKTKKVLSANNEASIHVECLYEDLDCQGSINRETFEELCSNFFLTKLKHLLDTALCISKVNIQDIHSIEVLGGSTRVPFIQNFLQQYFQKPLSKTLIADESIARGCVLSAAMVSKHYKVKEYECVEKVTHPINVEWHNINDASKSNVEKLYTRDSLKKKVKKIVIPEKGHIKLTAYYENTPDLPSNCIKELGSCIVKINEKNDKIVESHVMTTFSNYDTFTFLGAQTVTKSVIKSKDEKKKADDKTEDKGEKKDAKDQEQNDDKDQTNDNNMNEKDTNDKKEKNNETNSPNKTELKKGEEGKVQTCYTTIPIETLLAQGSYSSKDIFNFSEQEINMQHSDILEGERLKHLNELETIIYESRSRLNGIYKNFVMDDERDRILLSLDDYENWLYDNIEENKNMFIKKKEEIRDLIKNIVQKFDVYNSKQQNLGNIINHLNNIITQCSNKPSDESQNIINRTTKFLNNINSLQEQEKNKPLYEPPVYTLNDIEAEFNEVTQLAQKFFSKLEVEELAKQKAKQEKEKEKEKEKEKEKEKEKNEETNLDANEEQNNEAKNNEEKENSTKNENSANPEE

[2] = molecular target: T2, PfHsp70-1 (Plasmodium falciparum, UniProt Q8IB24); assay: SPR heterologous association with PfHsp70-1; format: binding
[3] = molecular target: T2, PfHsp70-1; conditions: previous study; ref [3]; cited from earlier work

T2 sequence (Q8IB24 1-677): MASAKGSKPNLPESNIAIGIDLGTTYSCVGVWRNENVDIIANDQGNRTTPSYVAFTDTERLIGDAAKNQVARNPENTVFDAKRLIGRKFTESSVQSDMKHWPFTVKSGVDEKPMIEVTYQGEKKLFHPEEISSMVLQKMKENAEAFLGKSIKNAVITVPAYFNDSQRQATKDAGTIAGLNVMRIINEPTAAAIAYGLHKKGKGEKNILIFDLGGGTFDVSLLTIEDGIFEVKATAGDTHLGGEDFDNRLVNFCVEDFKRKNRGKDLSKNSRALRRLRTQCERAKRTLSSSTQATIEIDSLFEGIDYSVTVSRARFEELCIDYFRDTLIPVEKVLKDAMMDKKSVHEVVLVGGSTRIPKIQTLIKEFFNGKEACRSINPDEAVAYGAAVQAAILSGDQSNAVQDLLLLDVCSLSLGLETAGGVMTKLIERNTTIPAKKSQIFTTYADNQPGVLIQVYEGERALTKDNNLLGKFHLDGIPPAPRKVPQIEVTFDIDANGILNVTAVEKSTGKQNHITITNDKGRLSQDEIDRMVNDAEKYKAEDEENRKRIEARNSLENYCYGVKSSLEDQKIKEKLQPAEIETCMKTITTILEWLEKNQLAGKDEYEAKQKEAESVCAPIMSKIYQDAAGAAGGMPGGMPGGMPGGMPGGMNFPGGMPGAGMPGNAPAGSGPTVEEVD

B1: PfHsp70-z: essential cytosol localised Hsp110 chaperone of Plasmodium falciparum, recombinant (protein)
chain: T1 sequence (Q8IC01 1-873)
nucleotide regulation of self-association ([1]; NN vs ADP/ATP): its self-association was nucleotide independent; also recorded: its oligomerisation was not regulated by nucleotide | KD self-association ([1]; apo state): 1.39 nM | affinity in apo- vs ADP-state ([2]; apo- and ADP-states): occurred within the same order of affinity | effect of nucleotide on heterologous association ([2]; relative to apo-state): ATP enhanced the direct association of the two chaperones | effect of ATP on association [3]: ATP substantially enhances their association
